Laboratory results: publication PMC3720256

Experiments:
Experiment in all cases: EMSA
Ryp1(N) = Ryp1(N) (Histoplasma capsulatum G217B, UniProt A9QXX8 1-267); settings: protein: ivt; tags: C-terminal TEV site-6xHis; label: 5'-IRDye800 (Fwd strand); blunt
Ryp1 = Ryp1 (Histoplasma capsulatum G217B, UniProt A9QXX8 1-487); settings: protein: ivt; tags: C-terminal TEV site-6xHis; label: 5'-IRDye800 (Fwd strand); blunt
Ryp2;Ryp3 = target: T1, Ryp2;Ryp3 (Histoplasma capsulatum …, UniProt B2CQK0;B2CQK1 1-404;1-373, |); settings: protein: ivt;ivt; tags: C-terminal TEV site-6xHis;C-terminal TEV site-6xHis; copies: 1;1; label: 5'-IRDye800 (Fwd strand); blunt
T1 sequence 1: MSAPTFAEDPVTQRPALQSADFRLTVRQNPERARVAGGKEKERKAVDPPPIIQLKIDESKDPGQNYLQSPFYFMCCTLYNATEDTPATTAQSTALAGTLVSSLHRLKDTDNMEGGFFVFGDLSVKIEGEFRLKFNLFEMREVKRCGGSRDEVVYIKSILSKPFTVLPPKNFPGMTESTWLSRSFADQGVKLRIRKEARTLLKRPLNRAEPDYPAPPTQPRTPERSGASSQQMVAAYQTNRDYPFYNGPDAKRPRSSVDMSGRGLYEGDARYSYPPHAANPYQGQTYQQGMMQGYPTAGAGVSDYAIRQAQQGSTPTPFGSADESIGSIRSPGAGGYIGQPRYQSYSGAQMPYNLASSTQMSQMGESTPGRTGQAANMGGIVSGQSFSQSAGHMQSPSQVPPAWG
T1 sequence 2: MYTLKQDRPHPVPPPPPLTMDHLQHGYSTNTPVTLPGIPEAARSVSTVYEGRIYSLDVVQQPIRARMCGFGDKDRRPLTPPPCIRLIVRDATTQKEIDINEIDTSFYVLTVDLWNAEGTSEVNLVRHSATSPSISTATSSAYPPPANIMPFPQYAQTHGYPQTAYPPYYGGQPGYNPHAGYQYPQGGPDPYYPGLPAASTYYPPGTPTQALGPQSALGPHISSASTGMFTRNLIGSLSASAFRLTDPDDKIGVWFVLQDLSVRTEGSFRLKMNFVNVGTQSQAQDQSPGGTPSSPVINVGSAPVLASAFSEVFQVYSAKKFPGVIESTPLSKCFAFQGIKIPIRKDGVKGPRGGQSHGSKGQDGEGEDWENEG

B1: CBP1 promoter Motif A probe (dsDNA)
DNA 1: TAATGGTTCCAGATTGAGTTTCGTTTAAAGTTCACAACTCAATTCGGCAGCTCCGCTGCA
DNA 2: TGCAGCGGAGCTGCCGAATTGAGTTGTGAACTTTAAACGAAACTCAATCTGGAACCATTA
binding result (Ryp1(N)): binds
binding result (Ryp1): binds

B2: CBP1 promoter Motif B probe (dsDNA)
DNA 1: ATCAGGCGTCCGATCAGGTGATTGCTTTTAACCTTGGGATCCAGAGATCTCTCTATCTTT
DNA 2: AAAGATAGAGAGATCTCTGGATCCCAAGGTTAAAAGCAATCACCTGATCGGACGCCTGAT
binding result (Ryp2;Ryp3): binds
